According to patent US20230125614A1:

Target: ARC40-GFP bait (S. cerevisiae ARC40, member of the Arp2/3 complex, fused with a C-terminal GFP epitope tag) (Saccharomyces cerevisiae) (UniProt P38328)
Assay: in vivo mRNA display co-purification, pooled yeast library, anti-GFP bead IP of ARC40-GFP, NGS read-out

Substance	Display Score
in vivo mRNA display library protein ARC18 (MCP-ARC18 fusion with purification tag) (from UniProt Q05933 1-178)	3.3
in vivo mRNA display library protein ARC19 (MCP-ARC19 fusion with purification tag) (from UniProt P33204 1-171)	3.9
in vivo mRNA display library protein ARC35 (MCP-ARC35 fusion with purification tag) (from UniProt P53731 1-342)	3.7
in vivo mRNA display library protein ARP2 (MCP-ARP2 fusion with purification tag) (from UniProt P32381 1-391)	0.55

Target: ARC40-GFP bait (S. cerevisiae ARC40, member of the Arp2/3 complex, fused with a C-terminal GFP epitope tag) (Saccharomyces cerevisiae) (UniProt P38328)
Assay: low-throughput in vivo mRNA display co-purification, individually cloned ORFs, anti-GFP bead IP of ARC40-GFP

Substance	Display Score
in vivo mRNA display library protein ARP2 (MCP-ARP2 fusion with purification tag) (from UniProt P32381 1-391)	1.8
in vivo mRNA display protein MYO3 (MCP-MYO3 fusion, individually cloned for the low-throughput experiment) (from UniProt P36006 1-1272)	1.9
